Four molecules from patent US20220290200A1, “GENETICALLY MODIFIED HOST CELLS PRODUCING GLYCOSYLATED CANNABINOIDS” (OCTARINE BIO IVS, priority 2019, published 2022) can be followed below.

Series [1] is described as follows: In vitro glycosyl transferase performance, purified enzymes, % conversion of cannabinoids to cannabinoid glycosides. It is filed as biochemical. How it is done: For in vitro studies of glycosyl transferase performance in glycosylating cannabinoids, purified Glycosyl transferases were prepared as follows:
5 mL of 2× concentrated LB medium+Ampicillin (50 μg/m L) was inoculated with E. coli XJb (DE3) strains expressing a glycosyl transferase of interest and incubated overnight at 30° C. with shaking. The following day, cell cultures were transferred into 500 mL of 2× concentrated LB medium+Ampicillin (50 μg/mL) and incubated overnight at 30° C. with shaking. The following day, the cell cultures were transferred to 1 L of 2× concentrated LB medium+Ampicillin (50 μg/mL)+3 mM arabinose+0.1 mM IPTG. Cells were incubated for 24 h at 20° C. with shaking. The following day, the cells were collected by centrifugation at 46500×g for 10 mins at 4° C. Cells were resuspended in 20 mL ice-cold GT buffer (50 mM Tris-HCl pH7.4+1 mM phenylmethanesulfonyl fluoride+1 cOmplete™, mini, EDTA-free Protease Inhibitor Cocktail tablet (Roche)). The resuspended material was transferred to a 50 mL falcon tube and kept at −80° C. for at least 15 mins. Falcon tubes were then thawed at room temperature, as the tubes were thawing the following reagents were added; 2.6 mM MgCl2, 1 mM CaCl2, 250 μL of a 1.4 mg/ml DNase solution (Sigma) dissolved in MilliQ water. Tubes were gently inverted to mix then were incubated for 5 mins at 37° C. Binding buffer was then added to the tubes (50 mM Tris-HCl pH7.4, 10 mM imidazole, 500 mM NaCl. 11.25 mL MilliQ water) and the pH adjusted to 7.4 with HCl. The mix was centrifuged at 15550×g for 15 mins at 4° C., the supernatant transferred to a fresh 50 mL falcon tubes and centrifuged again to remove any remaining cellular debris at 48400×g for 20 minutes at 4° C. While the enzyme prep was centrifuging, 3 mL of HIS-Select (available from Sigma P6611) column material was added to a fresh 50 mL tube and washed by adding MilliQ water up to 50 mL, centrifuging at 2000×g for 2 mins and discarding the supernatant. This washing step was repeated. Finally, MilliQ water was added to the HIS-Select material to an approximate 50% volume. Collected supernatant from the centrifuged enzyme preparation was transferred to the tube containing the HIS-Select material through a Miracloth (available from Merck Millipore), and then incubated at 4° C. with gently shaking by inversion for 2 h. After 2 h the mix was centrifuged at 2000×g for 4 minutes at 4° C. and the supernatant discarded. The remaining HIS-Select material was washed twice with 1× binding buffer (50 mM Tris-HCl, 0.5M NaCl, 10 mM Imidazole, pH 7.4) with centrifugation at 2000×g for 4 minutes at 4° C. The HIS-Select material was resuspended in 5 mL 1× binding buffer and transferred to a Poly-Prep®Chromatography Column (available from BioRad, 7311550). The HIS-Select material was kept at 4° C. and washed twice with 1× binding buffer by filling up the column and allowing it to drip through. Finally, purified Glycosyl transferases were eluted from the HIS-Select material by adding 7.5 mL of elution buffer (50 mM Tris-HCl, 500 mM Imidazole, pH7.4) and collecting the flow through. Enzymes were used immediately in in vitro enzyme assays or stored at −20° C. in 50% glycerol until needed.
In vitro conversion of various cannabinoids to cannabinoid glycosides was carried out according to table 21. Alkaline phosphatase was provided by New England Biolabs (M0371S). Cannabinoids were dissolved in methanol. The UDP-sugar (e.g. UDP-glucose) was provided by a commercial supplier (e.g. Sigma) or produced by in vitro enzymatic conversion from a commercially available UDP-sugar as shown in Example 21.
The reaction mixture was scaled up or down as required. The reaction mixture was incubated without shaking at 30° C. for 24 hours. Extraction and analysis were performed as described above for this example. […]

Series [2] is described as follows: In vivo bioconversion of cannabinoid substrate to glycoside in E. coli expressing glycosyl transferases. It is filed as cell-based. How it is done:
The Sr76G1 expression plasmid (PL-55(Sr76G1_GA (SEQ ID NO:123,124)) was also included (resulting in E. coli strain EC-55) to test whether the absence of activity observed in vitro was also observed in vivo. Strains were subsequently incubated overnight in 5 mL of LB media supplemented with ampicillin in 10 mL pre-culture tubes at 37° C. Subsequently, cells were inoculated to a starting OD600 of 0.1 in 500 μL of LB media supplemented with ampicillin in a 96 deep-well plate and incubated at 30° C. for 6 hours. A cannabinoid substrate was then dissolved in ethanol and added to the culture media along with a suitable inducing agent (IPTG) in the following final concentrations:
Cannabinoid substrate: 250 μM
Cells were cultivated with the added ethanol, cannabinoid substrate and IPTG for a further 66 hours. Cannabinoid glycosides were extracted and analyzed by HPLC analysis as described above. The decrease in cannabinoid concentration and accumulation of cannabinoid glycosides were quantified and percent conversion calculated for each glycoside. As shown in table 51 below E. coli strains expressing glycosyl transferases could convert a range of cannabinoids into their corresponding glycosides.

Series [3] is described as follows: In vitro conversion of CBD with combined glycosyl transferases (sugar-sugar linkages). Format: biochemical. The source says: The glycosyl transferases described herein can broadly be grouped into either glycosyl transferases active on the cannabinoid aglycones or glycosyl transferases active on cannabinoid glycosides. The latter group, instead of attaching a sugar moiety onto a free hydroxy group on the cannabinoid molecule, attaches a sugar moiety onto the sugar group of the cannabinoid glycoside. In Example 13 a range of glycosyl transferases were discovered that were active only on cannabinoid aglycones (e.g. PL-159(Pt88G_GA) (SEQ ID NO: 147, 148)) as well a range of glycosyl transferases which were active on both cannabinoid aglycones and cannabinoid glycosides. […] Two of these enzymes (PL-55(Sr76G1_GA) (SEQ ID NO: 123, 124) and PL-32(OsEUGT11_GA) (SEQ ID NO: 115, 116)) are described in prior art and are well known to catalyze a range of sugar on sugar reactions and were recently described as being able to perform sugar on sugar reactions on cannabinoid glycosides. […] In vitro assays were performed and analyzed as described previously. […] By comparing the LC-MS/QTOF retention time, measured mass and fragmentation pattern as well as the c Log P it could be elucidated that Sr76G1, OsEUGT11 and Si94D were catalysing sugar on sugar reactions with different linkages. […]

B1: Sr76G1: glycosyl transferase isolated from S. rebaudiana, SEQ ID NO: 123, 124, described in prior art (protein)
chain: MDQMAKIDEKKPHVVFIPFPAQSHIKCMLKLARILHQKGLYITFINTDTNHERLVASGGTQWLENAPGFWFKTVPDGFGSAKDDGVKPTDALRELMDYLKTNFFDLFLDLVLKLEVPATCIICDGCMTFANTIRAAEKLNIPVILFWTMAACGFMAFYQAKVLKEKEIVPVKDETYLTNGYLDMEIDWIPGMKRIRLRDLPEFILATKQNYFAFEFLFETAQLADKVSHMIIHTFEELEASLVSEIKSIFPNVYTIGPLQLLLNKITQKETNNDSYSLWKEEPECVEWLNSKEPNSVVYVNFGSLAVMSLQDLVEFGWGLVNSNHYFLWIIRANLIDGKPAVMPQELKEAMNEKGFVGSWCSQEEVLNHPAVGGFLTHCGWGSIIESLSAGVPMLGWPSIGDQRANCRQMCKEWEVGMEIGKNVKRDEVEKLVRMLMEGLEGERMRKKALEWKKSATLATCCNGSSSLDVEKLANEIKKLSRN
As to B1, the “glycosyltransferase activity using cannabinoid aglycones as substrate” value in series [1] (any cannabinoid aglycone) is “no glycosyltransferase activity was detected”. In addition, the “glycosyl transferase activity in vivo” value in series [2] (E. coli strain EC-55) was “lack of activity”.

B2: PL-159(Pt88G_GA) (protein)
chain: MEDTIVLYPSPGRGHLFSMVELGKQILEHHPSISITIIISAMPTESISIDDPYFSTLCNTNPSITLIHLPQVSLPPNTSFSPLDFVASFFELPELNNTNLHQTLLNLSKSSNIKAFIIDFFCSAAFEFVSSRHNIPIYFFYTTCASGLSMFLHLPILDKIITKSLKDLDIIIDLPGIPKIPSKELPPAISDRSHRVYQYLVDTAKLMIKSAGLIINTFELLERKALQAIQEGKCGAPDEPVPPLFCVGPLLTTSESKSEHECLTWLDSQPTRSVLFLCFGSMGVFNSRQLRETAIGLEKSGVRFLWVVRPPLADSQTQAGRSSTPNEPCLDLLLPEGFLERTKDRGFLVNSWAPQVEILNHGSVGGFVTHCGWNSVLEALCAGVPMVAWPLYAEQRMNRIFLVEEMKVALAFREAGDDHFVNAAELEERVIELMNSKKGEAVRERVLKLREDAVVAKSDGGSSCIAMAKLVDCFKKG
On to B2, for which, in series [1] (glycosyl transferase in vitro, Table 24), the “% conversion of CBD to OB1 (CBD-1′-O-β-D-glucoside)” value came out at 97.4%. The “% conversion of CBD to OB13 (CBD-1′-O-α-L- rhamnoside)” value in series [1] (glycosyl transferase in vitro, Table 25) came to 2.0%. In addition, the “% conversion of CBD to OB9 (CBD-1′-O-β-D-xyloside)” value in series [1] (glycosyl transferase in vitro, Table 26) is on record as 12.4%. Moreover, in series [1] (glycosyl transferase in vitro, Table 33), the “% conversion of CBDV to OB24 (CBDV-1′-O-β-D-glucoside)” value amounted to 89.2%. In addition, the “% conversion of CBDA to OB31 (CBDA-1′-O-β-D-glucoside)” value in series [1] (glycosyl transferase in vitro, Table 37) was 12.0%. The “% conversion, CBG to OB32 (CBG-1′-O-β-D-glucoside)” value in series [1] (substrate CBG, product OB32, glycosyl transferase in vitro) turned out to be 51.9%. For the same molecule, in series [3] (substrate CBD, in vitro), the “amount of CBD converted to OB1 (CBD-1′-O-β-D-glucoside) expressed as a percentage” value turned out to be 97.5%.

B3: Si94D: glycosyl transferase active on cannabinoid glycosides, SEQ ID NO: 145, 146 (protein)
chain: MDTRKRSIRILMFPWLAHGHISAFLELAKSLAKRNFVIYICSSQVNLNSISKNMSSKDSISVKLVELHIPTTILPPPYHTTNGLPPHLMSTLKRALDSARPAFSTLLQTLKPDLVLYDFLQSWASEEAESQNIPAMVFLSTGAAAISFIMYHWFETRPEEYPFPAIYFREHEYDNFCRFKSSDSGTSDQLRVSDCVKRSHDLVLIKTFRELEGQYVDFLSDLTRKRFVPVGPLVQEVGCDMENEGNDIIEWLDGKDRRSTVFSSFGSEYFLSANEIEEIAYGLELSGLNFIWVVRFPHGDEKIKIEEKLPEGFLERVEGRGLVVEGWAQQRRILSHPSVGGFLSHCGWSSVMEGVYSGVPIIAVPMHLDQPFNARLVEAVGFGEEVVRSRQGNLDRGEVARVVKKLVMGKSGEGLRRRVEELSEKMREKGEEEIDSLVEELVTVVRRRERSNLKSENSMKKLNVMMMENREGMLSENA
In the case of B3, the “efficiency of 1-6 glucose-glucose linkage (gentiobioside) formation” value in series [3] (combined with Pt88G, CBD and UDP-glucose as substrates) is 100%.

B4: Cs73Y: glycosyl transferase, SEQ ID NO: 157 (207 for the yeast codon-optimized gene) (protein)
chain: MGSEGRQLHIFMFPFMAHGHMIPIVDMAKLFASRGIKITIVTTPLNSISISKSLHNCSPNSLIQLLILKFPAAEAGLPDGCENADSIPSMDLLPKFFEAVSLLQPPFEEALHNNRPDCLISDMFFPWTNDVADRVGIPRLIFHGTSCFSLCSSEFMRLHKPYQHVSSDTEPFTIPYLPGDIKLTKMKLPIFVRENSENEFSKFITKVKESESFCYGVVVNSFYELEAEYVDCYKDVLGRKTWTIGPLSLTNTKTQEITLRGRESAIDEHECLKWLDSQKPNSVVYVCFGSLAKFNSAQLKEIAIGLEASGKKFIWVVRKGKGEEEEEEQNWLPEGYEERMEGTGLIIRGWAPQVLILDHPSVGGFVTHCGWNSTLEGVAAGVPMVTWPVGAEQFYNEKLVTEVLKTGVGVGVQKWAPGVGDFIESEAVEKAIRRIMEKEGEEMRNRAIELGKKAKWAVGEEGSSYSNLDALIEELKSLAF
For the molecule B4, in series [2] (E. coli, 250 μM CBN fed, to OB23), the “conversion of fed cannabinoid to cannabinoid glycoside in vivo” value came out at 100%.
